Experimental data: article PMC3945083

Tests used:
Flag-PARP-1 = Flag-PARP-1 (UniProt P09874 1-1014); assay: EMSA
PARP-1 (purified) = PARP-1 (purified) (UniProt P09874 1-1014); assay: pull-down
Chain of PARP-1 (purified) (P09874 whole entry): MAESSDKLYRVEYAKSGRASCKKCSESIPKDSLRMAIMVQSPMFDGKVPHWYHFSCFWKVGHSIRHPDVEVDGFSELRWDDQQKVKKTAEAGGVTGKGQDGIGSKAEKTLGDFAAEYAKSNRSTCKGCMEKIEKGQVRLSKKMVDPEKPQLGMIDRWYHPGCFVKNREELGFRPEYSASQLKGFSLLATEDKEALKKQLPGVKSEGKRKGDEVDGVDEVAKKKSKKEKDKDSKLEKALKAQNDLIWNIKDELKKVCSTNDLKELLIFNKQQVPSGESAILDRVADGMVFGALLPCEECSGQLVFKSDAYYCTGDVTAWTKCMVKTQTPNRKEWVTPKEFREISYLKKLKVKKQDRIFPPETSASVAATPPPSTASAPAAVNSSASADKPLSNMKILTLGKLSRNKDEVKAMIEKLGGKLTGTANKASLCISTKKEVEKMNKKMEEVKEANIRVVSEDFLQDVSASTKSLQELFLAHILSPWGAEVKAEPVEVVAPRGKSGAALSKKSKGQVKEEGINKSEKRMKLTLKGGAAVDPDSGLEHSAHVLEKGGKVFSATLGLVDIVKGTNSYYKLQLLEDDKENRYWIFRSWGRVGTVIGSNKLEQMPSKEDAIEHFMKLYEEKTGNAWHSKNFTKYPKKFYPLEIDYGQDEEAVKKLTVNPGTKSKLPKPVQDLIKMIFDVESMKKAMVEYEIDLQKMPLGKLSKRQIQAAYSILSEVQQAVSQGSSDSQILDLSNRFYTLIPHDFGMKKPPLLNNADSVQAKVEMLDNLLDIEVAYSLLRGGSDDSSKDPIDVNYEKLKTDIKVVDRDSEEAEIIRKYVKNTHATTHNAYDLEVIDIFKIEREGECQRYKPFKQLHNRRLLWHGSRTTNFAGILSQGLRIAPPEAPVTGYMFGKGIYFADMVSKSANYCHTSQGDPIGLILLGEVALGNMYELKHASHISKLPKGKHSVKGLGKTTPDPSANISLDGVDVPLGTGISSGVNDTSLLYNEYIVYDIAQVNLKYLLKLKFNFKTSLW

Chain of Flag-PARP-1 (P09874 whole entry): as above

B1: WT NQO1-ARE (dsDNA)
DNA 1: AAATCGCAGTCACAGTGACTCAGCAGAATCTGAGCCTAGGG
DNA 2: CCCTAGGCTCAGATTCTGCTGAGTCACTGTGACTGCGATTT
B1: binds (Flag-PARP-1); binds (PARP-1 (purified)).
